Assay results reported in patent US20160151510A1.
pKd: −log10 of the molar value.

Columns and labels:
[1] = biological target: GLP-1 receptor on CHO-K1/GLP1/Gal5 cells; assay: cell-based or functional assay
[2] = biological target: GLP-1 receptor (covalently immobilized to the Biacore biosensor surface); assay: Biacore SPR, GLP-1 receptor covalently immobilized, peptide injected

Question: Which EC50 of intracellular calcium mobilization (Calcium-4, FlexStation, RFU) [1] does the source give for “5 kDa-PEG-Cys(37)-GLP-1 (from UniProt P01275 27-56) (peptide)” here?
Answer: 336 nM

Question: And the pKd [2]?
Answer: 5.80

Question: How did the pKd [2] turn out when “GLP-1 (7-36) (from UniProt P01275 27-56) (peptide)” was run?
Answer: 6.00
